The results in this text go back to patent publication US20230357342A1 (published 2023).

The target of this test is T1, IL-18 receptor on HEK-Blue IL18R reporter cells (UniProt Q13478 19-541; O95256 20-599, limits assumed).
T1 sequence (looked up) 1: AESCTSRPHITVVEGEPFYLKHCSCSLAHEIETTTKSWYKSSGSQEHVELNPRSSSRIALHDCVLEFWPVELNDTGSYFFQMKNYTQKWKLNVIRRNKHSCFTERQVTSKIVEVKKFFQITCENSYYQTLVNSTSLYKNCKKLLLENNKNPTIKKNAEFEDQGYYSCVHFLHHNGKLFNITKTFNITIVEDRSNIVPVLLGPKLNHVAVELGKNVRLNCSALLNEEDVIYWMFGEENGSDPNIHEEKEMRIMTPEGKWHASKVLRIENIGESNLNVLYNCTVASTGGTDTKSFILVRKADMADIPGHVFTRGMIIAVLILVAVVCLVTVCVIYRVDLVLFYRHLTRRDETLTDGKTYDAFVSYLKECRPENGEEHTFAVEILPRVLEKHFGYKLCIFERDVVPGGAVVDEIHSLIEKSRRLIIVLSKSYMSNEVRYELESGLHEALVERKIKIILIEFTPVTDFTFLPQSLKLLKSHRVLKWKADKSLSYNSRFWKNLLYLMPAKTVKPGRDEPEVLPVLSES
T1 sequence (looked up) 2: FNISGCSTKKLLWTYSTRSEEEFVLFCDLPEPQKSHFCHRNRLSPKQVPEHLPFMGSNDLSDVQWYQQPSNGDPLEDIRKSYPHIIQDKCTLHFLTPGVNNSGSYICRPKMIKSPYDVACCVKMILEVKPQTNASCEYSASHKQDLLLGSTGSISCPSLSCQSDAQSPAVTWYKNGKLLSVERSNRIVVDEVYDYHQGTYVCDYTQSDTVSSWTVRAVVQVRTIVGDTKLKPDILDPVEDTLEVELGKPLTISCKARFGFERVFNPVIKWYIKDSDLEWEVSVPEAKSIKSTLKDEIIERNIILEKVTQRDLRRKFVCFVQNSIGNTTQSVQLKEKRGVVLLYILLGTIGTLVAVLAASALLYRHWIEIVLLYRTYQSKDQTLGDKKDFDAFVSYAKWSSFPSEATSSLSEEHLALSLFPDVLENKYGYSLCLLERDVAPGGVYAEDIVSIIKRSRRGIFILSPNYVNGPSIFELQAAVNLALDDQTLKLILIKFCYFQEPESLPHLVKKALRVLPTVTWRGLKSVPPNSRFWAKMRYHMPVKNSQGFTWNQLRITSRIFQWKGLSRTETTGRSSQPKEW
Nature of the test: cell-based or functional assay.

B1: modified IL-18 polypeptide SEQ ID NO: 30 (E6K, V11I, C38A, K53A, T63A, C76A, C127A) (ligand)
chain: YFGKLKSKLSIIRNLNDQVLFIDQGNRPLFEDMTDSDARDNAPRTIFIISMYADSQPRGMAVAISVKCEKISTLSAENKIISFKEMNPPDNIKDTKSDIIFFQRSVPGHDNKMQFESSSYEGYFLAAEKERDLFKLILKKEDELGDRSIMFTVQNED
Regarding B1, the “EC50, HEK-Blue IL18R reporter (SEAP)” value was 0.053 nM.

B2: modified IL-18 polypeptide SEQ ID NO: 209 (F2A, V11I, C38A, K53A, C76A, C127A) (ligand)
chain: YAGKLESKLSIIRNLNDQVLFIDQGNRPLFEDMTDSDARDNAPRTIFIISMYADSQPRGMAVTISVKCEKISTLSAENKIISFKEMNPPDNIKDTKSDIIFFQRSVPGHDNKMQFESSSYEGYFLAAEKERDLFKLILKKEDELGDRSIMFTVQNED
Consider B2, for which the “EC50, HEK-Blue IL18R reporter (SEAP)” value turned out to be 7.28 nM.

B3: modified IL-18 polypeptide SEQ ID NO: 219 (V11I, C38A, K53A, C76A, G108A, C127A) (ligand)
chain: YFGKLESKLSIIRNLNDQVLFIDQGNRPLFEDMTDSDARDNAPRTIFIISMYADSQPRGMAVTISVKCEKISTLSAENKIISFKEMNPPDNIKDTKSDIIFFQRSVPAHDNKMQFESSSYEGYFLAAEKERDLFKLILKKEDELGDRSIMFTVQNED
For B3, the “EC50, HEK-Blue IL18R reporter (SEAP)” value worked out at 15.6 nM.

B4: modified IL-18 polypeptide SEQ ID NO: 212 (V11I, D35A, C38A, K53A, C76A, C127A) (ligand)
chain: YFGKLESKLSIIRNLNDQVLFIDQGNRPLFEDMTASDARDNAPRTIFIISMYADSQPRGMAVTISVKCEKISTLSAENKIISFKEMNPPDNIKDTKSDIIFFQRSVPGHDNKMQFESSSYEGYFLAAEKERDLFKLILKKEDELGDRSIMFTVQNED
For the molecule B4, the “EC50, HEK-Blue IL18R reporter (SEAP)” value stood at 13.1 nM.

B5: modified IL-18 polypeptide SEQ ID NO: 208 (V11I, C38A, K53A, D54A, C76A, C127A) (ligand)
chain: YFGKLESKLSIIRNLNDQVLFIDQGNRPLFEDMTDSDARDNAPRTIFIISMYAASQPRGMAVTISVKCEKISTLSAENKIISFKEMNPPDNIKDTKSDIIFFQRSVPGHDNKMQFESSSYEGYFLAAEKERDLFKLILKKEDELGDRSIMFTVQNED
As for B5, the “EC50, HEK-Blue IL18R reporter (SEAP)” value is 1 nM.

B6: modified IL-18 polypeptide SEQ ID NO: 213 (V11I, S36A, C38A, K53A, C76A, C127A) (ligand)
chain: YFGKLESKLSIIRNLNDQVLFIDQGNRPLFEDMTDADARDNAPRTIFIISMYADSQPRGMAVTISVKCEKISTLSAENKIISFKEMNPPDNIKDTKSDIIFFQRSVPGHDNKMQFESSSYEGYFLAAEKERDLFKLILKKEDELGDRSIMFTVQNED
As for B6, the “EC50, HEK-Blue IL18R reporter (SEAP)” value was found to be 0.25 nM.

B7: modified IL-18 polypeptide SEQ ID NO: 216 (V11I, C38A, D40A, K53A, C76A, C127A) (ligand)
chain: YFGKLESKLSIIRNLNDQVLFIDQGNRPLFEDMTDSDARANAPRTIFIISMYADSQPRGMAVTISVKCEKISTLSAENKIISFKEMNPPDNIKDTKSDIIFFQRSVPGHDNKMQFESSSYEGYFLAAEKERDLFKLILKKEDELGDRSIMFTVQNED
Consider B7, for which the “EC50, HEK-Blue IL18R reporter (SEAP)” value stood at 0.52 nM.

B8: modified IL-18 polypeptide SEQ ID NO: 206 (V11I, C38A, K53A, S55A, C76A, C127A) (ligand)
chain: YFGKLESKLSIIRNLNDQVLFIDQGNRPLFEDMTDSDARDNAPRTIFIISMYADAQPRGMAVTISVKCEKISTLSAENKIISFKEMNPPDNIKDTKSDIIFFQRSVPGHDNKMQFESSSYEGYFLAAEKERDLFKLILKKEDELGDRSIMFTVQNED
As for B8, the “EC50, HEK-Blue IL18R reporter (SEAP)” value amounted to 3.63 nM.

B9: modified IL-18 polypeptide SEQ ID NO: 204 (V11I, C38A, K53A, C76A, C127A) (ligand)
chain: YFGKLESKLSIIRNLNDQVLFIDQGNRPLFEDMTDSDARDNAPRTIFIISMYADSQPRGMAVTISVKCEKISTLSAENKIISFKEMNPPDNIKDTKSDIIFFQRSVPGHDNKMQFESSSYEGYFLAAEKERDLFKLILKKEDELGDRSIMFTVQNED
For the molecule B9, the “EC50, HEK-Blue IL18R reporter (SEAP)” value is 0.98 nM.

B10: modified IL-18 polypeptide SEQ ID NO: 217 (V11I, C38A, N41A, K53A, C76A, C127A) (ligand)
chain: YFGKLESKLSIIRNLNDQVLFIDQGNRPLFEDMTDSDARDAAPRTIFIISMYADSQPRGMAVTISVKCEKISTLSAENKIISFKEMNPPDNIKDTKSDIIFFQRSVPGHDNKMQFESSSYEGYFLAAEKERDLFKLILKKEDELGDRSIMFTVQNED
Consider B10, for which the “EC50, HEK-Blue IL18R reporter (SEAP)” value is 11.7 nM.

B11: modified IL-18 polypeptide SEQ ID NO: 205 (V11I, C38A, K53A, T63A, C76A, C127A) (ligand)
chain: YFGKLESKLSIIRNLNDQVLFIDQGNRPLFEDMTDSDARDNAPRTIFIISMYADSQPRGMAVAISVKCEKISTLSAENKIISFKEMNPPDNIKDTKSDIIFFQRSVPGHDNKMQFESSSYEGYFLAAEKERDLFKLILKKEDELGDRSIMFTVQNED
Consider B11, for which the “EC50, HEK-Blue IL18R reporter (SEAP)” value turned out to be 0.17 nM.

B12: modified IL-18 polypeptide SEQ ID NO: 207 (V11I, C38A, M51G, K53A, C76A, C127A) (ligand)
chain: YFGKLESKLSIIRNLNDQVLFIDQGNRPLFEDMTDSDARDNAPRTIFIISGYADSQPRGMAVTISVKCEKISTLSAENKIISFKEMNPPDNIKDTKSDIIFFQRSVPGHDNKMQFESSSYEGYFLAAEKERDLFKLILKKEDELGDRSIMFTVQNED
As to B12, the “EC50, HEK-Blue IL18R reporter (SEAP)” value came to 0.8 nM.

B13: modified IL-18 polypeptide SEQ ID NO: 210 (V11I, E31A, C38A, K53A, C76A, C127A) (ligand)
chain: YFGKLESKLSIIRNLNDQVLFIDQGNRPLFADMTDSDARDNAPRTIFIISMYADSQPRGMAVTISVKCEKISTLSAENKIISFKEMNPPDNIKDTKSDIIFFQRSVPGHDNKMQFESSSYEGYFLAAEKERDLFKLILKKEDELGDRSIMFTVQNED
For B13, the “EC50, HEK-Blue IL18R reporter (SEAP)” value was determined as 6.6 nM.

B14: modified IL-18 polypeptide SEQ ID NO: 215 (V11I, E31A, D37A, C38A, K53A, C76A, C127A) (ligand)
chain: YFGKLESKLSIIRNLNDQVLFIDQGNRPLFADMTDSAARDNAPRTIFIISMYADSQPRGMAVTISVKCEKISTLSAENKIISFKEMNPPDNIKDTKSDIIFFQRSVPGHDNKMQFESSSYEGYFLAAEKERDLFKLILKKEDELGDRSIMFTVQNED
On to B14, for which the “EC50, HEK-Blue IL18R reporter (SEAP)” value came out at 11.9 nM.

B15: modified IL-18 polypeptide SEQ ID NO: 218 (V11I, C38A, K53A, C76A, C127A, D132A) (ligand)
chain: YFGKLESKLSIIRNLNDQVLFIDQGNRPLFEDMTDSDARDNAPRTIFIISMYADSQPRGMAVTISVKCEKISTLSAENKIISFKEMNPPDNIKDTKSDIIFFQRSVPGHDNKMQFESSSYEGYFLAAEKERALFKLILKKEDELGDRSIMFTVQNED
Take B15: the “EC50, HEK-Blue IL18R reporter (SEAP)” value was determined as 1.95 nM.

B16: modified IL-18 polypeptide SEQ ID NO: 211 (V11I, T34A, C38A, K53A, C76A, C127A) (ligand)
chain: YFGKLESKLSIIRNLNDQVLFIDQGNRPLFEDMADSDARDNAPRTIFIISMYADSQPRGMAVTISVKCEKISTLSAENKIISFKEMNPPDNIKDTKSDIIFFQRSVPGHDNKMQFESSSYEGYFLAAEKERDLFKLILKKEDELGDRSIMFTVQNED
As for B16, the “EC50, HEK-Blue IL18R reporter (SEAP)” value was 0.7 nM.

B17: modified IL-18 polypeptide SEQ ID NO: 214 (V11I, D37A, C38A, K53A, C76A, C127A) (ligand)
chain: YFGKLESKLSIIRNLNDQVLFIDQGNRPLFEDMTDSAARDNAPRTIFIISMYADSQPRGMAVTISVKCEKISTLSAENKIISFKEMNPPDNIKDTKSDIIFFQRSVPGHDNKMQFESSSYEGYFLAAEKERDLFKLILKKEDELGDRSIMFTVQNED
In the case of B17, the “EC50, HEK-Blue IL18R reporter (SEAP)” value came out at 14.1 nM.

B18: modified IL-18 polypeptide SEQ ID NO: 61 (E6K, C38A, K53A, C76A) (ligand)
chain: YFGKLKSKLSVIRNLNDQVLFIDQGNRPLFEDMTDSDARDNAPRTIFIISMYADSQPRGMAVTISVKCEKISTLSAENKIISFKEMNPPDNIKDTKSDIIFFQRSVPGHDNKMQFESSSYEGYFLACEKERDLFKLILKKEDELGDRSIMFTVQNED
With B18, the “EC50, HEK-Blue IL18R reporter (SEAP)” value worked out at 0.084 nM.

B19: modified IL-18 polypeptide SEQ ID NO: 62 (E6K, C38A, K53A, C127A) (ligand)
chain: YFGKLKSKLSVIRNLNDQVLFIDQGNRPLFEDMTDSDARDNAPRTIFIISMYADSQPRGMAVTISVKCEKISTLSCENKIISFKEMNPPDNIKDTKSDIIFFQRSVPGHDNKMQFESSSYEGYFLAAEKERDLFKLILKKEDELGDRSIMFTVQNED
Regarding B19, the “EC50, HEK-Blue IL18R reporter (SEAP)” value was 0.17 nM.

B20: modified IL-18 polypeptide SEQ ID NO: 63 (E6K, C38A, K53A, C76A, C127A) (ligand)
chain: YFGKLKSKLSVIRNLNDQVLFIDQGNRPLFEDMTDSDARDNAPRTIFIISMYADSQPRGMAVTISVKCEKISTLSAENKIISFKEMNPPDNIKDTKSDIIFFQRSVPGHDNKMQFESSSYEGYFLAAEKERDLFKLILKKEDELGDRSIMFTVQNED
In the case of B20, the “EC50, HEK-Blue IL18R reporter (SEAP)” value was 0.0139 nM.

B21: modified IL-18 polypeptide SEQ ID NO: 60 (E6K, C38Q, K53A) (ligand)
chain: YFGKLKSKLSVIRNLNDQVLFIDQGNRPLFEDMTDSDQRDNAPRTIFIISMYADSQPRGMAVTISVKCEKISTLSCENKIISFKEMNPPDNIKDTKSDIIFFQRSVPGHDNKMQFESSSYEGYFLACEKERDLFKLILKKEDELGDRSIMFTVQNED
For B21, the “EC50, HEK-Blue IL18R reporter (SEAP)” value was 0.203 nM.

B22: modified IL-18 polypeptide SEQ ID NO: 59 (E6K, C38A, K53A) (ligand)
chain: YFGKLKSKLSVIRNLNDQVLFIDQGNRPLFEDMTDSDARDNAPRTIFIISMYADSQPRGMAVTISVKCEKISTLSCENKIISFKEMNPPDNIKDTKSDIIFFQRSVPGHDNKMQFESSSYEGYFLACEKERDLFKLILKKEDELGDRSIMFTVQNED
As for B22, the “EC50, HEK-Blue IL18R reporter (SEAP)” value was 0.268 nM.
